# Assay results published in article PMC5780203.
# What was measured:
# [1] = molecular target: PHD finger of human BPTF protein (human); test: ITC
# [2] = molecular target: chromodomain of CBX5; test: ITC
fold weaker Kd than the native H3K4me3 peptide [1] [fold],fold tighter binding than the H3KC9me3 peptide [2] [fold],Substance
13,–,H3KC4me3 peptide MLA (methyllysine analog of H3K4me3)
–,6,trimethylated H3 lysine 9 peptide
